B1: [Val^8 Leu^18 ]hPTH (protein, UniProt P01270 32-115, looked up, variant M8V M18L)
Parathyroid hormone: SVSEIQLVHNLGKHLNSLERVEWLRKKLQDVHNFVALGAPLAPRDAGSQRPRKKEDNVLVESHEKSLGEADKADVNVLTKAKSQ
modifications: Parathyroid hormone
B2: [Cys^8 Leu^18 ]hpTH (protein, UniProt P01270 32-115, looked up, variant M8C M18L)
Parathyroid hormone: B1 Parathyroid hormone with V8C
B3: [Ala^8 ]hPTH (protein, UniProt P01270 32-115, looked up, variant M8A)
Parathyroid hormone: B1 Parathyroid hormone with V8A, L18M
modifications: Parathyroid hormone
B4: [Cys^8 ]hPTH (protein, UniProt P01270 32-115, looked up, variant M8C)
Parathyroid hormone: B1 Parathyroid hormone with V8C, L18M
B5: [Lys^8 Leu^18 ]: structurally related human PTH variant presented for comparison; Met8 replaced by Lys, Leu at 18 (protein, UniProt P01270 32-115, looked up, variant M8K M18L)
Parathyroid hormone: B1 Parathyroid hormone with V8K
modifications: Parathyroid hormone

Data on six molecules can be found in patent US5599792A, “Bone-stimulating, non-vasoactive parathyroid hormone variants” (Allelix Biopharmaceuticals Inc., priority 1994, dated 1997).

Substitutions are numbered along the chain they refer to.

This test concerns rat osteosarcoma cells of the UMR line (UMR-106), adenylate cyclase activity. The experiment in a line: UMR-106 based adenylate cyclase assay (cAMP formation). The format is cell-based. The settings on record: UMR-106 cells, radiometric cAMP formation; read-out: EC50 (concentration of PTH or variant effective for half-maximal stimulation of adenylate cyclase activity). The text has this:
In the present specification, "bone stimulating activity" is defined in the context of the osetosarcoma-based adenylate cyclase assay employed conventionally in the art. Briefly, this assay provides an in vitro determination of the extent to which PTH stimulates adenylate cyclase activity in rat osteosarcoma cells of the `UMR` lineage, and thus provides an indication of PTH effects on bone tissue in vivo. Protocols for conducting the assay have been described by Rodan et al, 1983, J. Clin. Invest., 72:1511 (in which the osteosaracoma cells of the ROS lineage are employed) and by Rabbani et al, 1988, Endocrinol., 123:2709 (which employs the line UMR-106).
Thawed or fresh samples of human PTH(1-84) and of PTH variants obtained as described above were then evaluated for biological activity in a UMR-106 based adenylate cyclase assay and the protocol as described by Rabbini et al, 1988, Endocrinology, 123:2709, which is incorporated herein by reference. As noted, rat osteosarcoma cells of the UMR line are stimulated by PTH to produce adenylate cyclase, an enzyme which catalyzes intracellular conversion of ATP to its cylic monophosphate analogue, cAMP. In this assay therefore, PTH activity is determined by assaying radiometrically the formation of cAMP in PTH-stimulated UMR cells. The results of the assays, expressed in terms of EC50 (concentration of PTH or variant effective for half-maximal stimulation of adenylate cyclase activity), are presented in Table 1.
On the technique in general: Cyclic AMP is a second messenger, typically raised through Gs and lowered through Gi signalling.
Regarding human PTH(1-84), the EC50 worked out at 2 nM. In the case of B1, the EC50 worked out at 110 nM. Take B2: the EC50 came to 200 nM. Consider B3, for which the EC50 is 1200 nM. Regarding B4, the EC50 was found to be 400 nM. Next, B5: greater than 5000 nM.
